Source: the nanobody polyreactivity screen of Harvey et al. (2022)

Assay: yeast display, Sf9 membrane polyspecificity reagent, FACS + sequencing; frameworks hold sequencing errors
How it was run: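 A synthetic nanobody library was expressed on Saccharomyces cerevisiae BJ5465 by galactose induction for 36–48 hours. The library was stained for 1 hour at 4 °C with 10% biotinylated, detergent-solubilized Sf9 membrane reagent and enriched with streptavidin microbeads before FACS. Low and high (top ~1%) gates were set on anti-HA fluorescence for expression and streptavidin fluorescence for reagent binding, and each polyreactivity label reflects the gate of origin.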
With “QVHVVESGGGLVQAGVSLLLSCAASGRTFYRNAMGWYRQAPGKERELVAAISSRGGSTYYADSVKGRFTISRDNAKNTVYLQMNSLKPEDTAVYYCAANYGYGGDYDYWVQGTQVTVSS” the “polyreactivity (PSR sort gate)” value was “high polyreactivity”.
For “QVQLVESGGGLVQAGGSLRLSCAASGSIFYRNAMGCSRQARGKERELVAAISSSGTRTYYADSVKGRFTISRDNAKNTVYLQMNILKPEDTAVYYCAAGVVLWYRRRYYYWGQGTQVTVSS”, the “polyreactivity (PSR sort gate)” value was “high polyreactivity”.
In the case of “QVQLVESGGGLVQAGGSLRLSCAASGFTFVYYAMVWYRQAPGKERELVAAISRSGGSTYYADSVKGRFTISRDNAKNTVYLQMNSLKPEDTAVYYCAADIVARYPYDYAMYYWGQGTQVTVSS”, the “polyreactivity (PSR sort gate)” value is reported as “high polyreactivity”.
With “QVQLVESGGGLVQAGGSLRLSCAASGRTFVFNAMGWYRQAPGKERELVAAITISGGSTYYADSVKGRFTISRDNAKNTVYLQMNSLKPEDTAVYYCNADSKIEVFSYIYDYWGQGTQVTVSS” the “polyreactivity (PSR sort gate)” value was “high polyreactivity”.
For “QVQLVESGGALVQAGGSLRLSCAASGLTFIAYALGWYRQAPGKERELVASIDSGGGTNYADSVKGRFTISRDNAKNTVYLQMNSLKREDTAVYYCAAESPLYWVDDFESGWRYYYWGQGTHVTVSS”, the “polyreactivity (PSR sort gate)” value was “low polyreactivity”.
For “QVQLQESGGGLEQAGGSLRLSCAASGYISDIGTMGWYRQAPAKEREFVATIVVGSTTNYADSVKGRFTISRDNAKNTVYLQPESGRYRGVLLSGWLLAVGKFTYWGQGTQETVSS”, the “polyreactivity (PSR sort gate)” value was “low polyreactivity”.
For “QVQLVESGGGLVQAGGSLRLTCAASGRTFAWYAMGWYRQAPGKERDLVAAISSAGSTYYADSVKGRFTISRDNAKNTVYLQMNSLKPEDTAVYYCAASFGRYTSGTYYYWGQGTQVTVSS”, the “polyreactivity (PSR sort gate)” value was “high polyreactivity”.
In the case of “QVQLVESGGGLVQAGCSLRLSCAASGSTLDGNAMGWYRQPPGKERELVAAISVSGGTTYYADSVKGRFTISRDNAKNNVYLQMNSLKREDTAVYYCSTEWRPRYYGTEPFDSWGQGTQVTVSS”, the “polyreactivity (PSR sort gate)” value is reported as “high polyreactivity”.
For “QVQLVESGGGSVQAGGSLRLSCAASGFTFDKNTMGWYRQAPGKERELVAAISSSGSSTYYADSVKGRFTISRDNAKNTVYLQMNSLKPEDTAVYYCAADYWGWDDYSEYYYWGQGTQVTVSS”, the “polyreactivity (PSR sort gate)” value was “high polyreactivity”.
In the case of “QVQLVESGGGLVQAGRSLRLSCAASGSIFTHNAMGWYRQAPGKERELVASITSRGGITYYADSVKGRFTISRDNAKNTVYLQMNSLKPEDTAVYYCAADLYIYPYDYWGQGTQVTVSS”, the “polyreactivity (PSR sort gate)” value is reported as “low polyreactivity”.
With “QVQLVESGGGLVQAGGSLRLSCAASGSTFAAYAAMGWYRQAPGKERELVAAISWNGGSTFYADSVKGRFTISRDNAKNTVYLQMNSLKPEDTAVYYCAVEYYWTLDFTFTFPLSYYWGQGSQVTVSS” the “polyreactivity (PSR sort gate)” value was “low polyreactivity”.
With “QGQLVESGGGLVQAGGSLRLSCAASGRTFTDYAMGWYRQAPGKEWELVADISGSGGSTYYADSVKGRFTISRDNAKNTVYLQMNSLNPEDTAVYYCNAVGSRRDKFDYWGQGTQVTVSS” the “polyreactivity (PSR sort gate)” value was “low polyreactivity”.
For “QVQLVESGGGFVQAGGSLRLSCAASGIIFTLYTMGWYIQAPGKERELVASISTRGGSTYYADSVKGRFTISRDYAKNTVYLQMNSLKPEDTAVYYCAAQGGYPVWRYYYWGQGTQVTVSS”, the “polyreactivity (PSR sort gate)” value was “high polyreactivity”.
In the case of “QVQLVESVGGLVQAGGSLRISSAASGRIFTGNGMGWYRQAPGKERELVASITYNGGRTYYADSVKGRFTISRDNAKNTVYLQINSLKPEDTSVYYCNAGDYGFRYEYWGQGTQVTVSS”, the “polyreactivity (PSR sort gate)” value is reported as “low polyreactivity”.
In the case of “QVQLVESGGGLVQAGGSLRLSCAASGYTFIDNAMGWYRQAPGKERELVAAISWSVDRTYYADSVKGRFTISRDNAKNTVYLQMNSLKPEDTAVYYCAAVHWWSSSLRMYYWGQGTQVTVSS”, the “polyreactivity (PSR sort gate)” value is reported as “low polyreactivity”.
In the case of “QDQLVESGGGLVQAGGSLRLSCDASGSTFLVYAMGWYRQAPGKERELVAAITQIDGSTYYADSVKGRFTISRDNAKNTVYLQMNSLKPEDTAVYYCAARYFWTYEYDYWGHGTQVTVSS”, the “polyreactivity (PSR sort gate)” value is reported as “low polyreactivity”.
For “QVQLVESGGGLVQAGGSLRLSCAASGGTFTRYAMGWYRQAPGKEREFVAAISGSGGSTYYADSVKGRFTISRDNAKNTVYLQMNSLKPEDTAVYYCNKVPVYPPSYYWGQGTQVTVSS”, the “polyreactivity (PSR sort gate)” value was “low polyreactivity”.
With “QVQLVESGGGLVQAGGSLRLSCAASGGTFFWYGMGWYRQAPGKERELVAAITSGGSTYYADSVKGRFTISRDNAKNTVYLQMNSLKPEDTAVYYCATENRFRGWYPTRSSLPYEYWGQGTQVTVSS” the “polyreactivity (PSR sort gate)” value was “low polyreactivity”.
In the case of “QVQLVESGGGLVQAGGSLRLRCDASGRTFFKNAMGWYRQAPGKERELVAAITSTGGRTYYADSVKGRFPISRDTAKNNVYVEMNSLKPEDTAVYYCAASNFYSGYYYWRQGTQVTVSS”, the “polyreactivity (PSR sort gate)” value is reported as “high polyreactivity”.
In the case of “QVQLVESGGGLVQAGGSLRLSCAPSGSTFYYYAMGWYRQAPGKERELVAAITWSGGSTRYADSVKGRFTISRDNAKNTVYLQMKSLKPEDTAVYYCAAYYRKTGFEYWGQGSQVTVSS”, the “polyreactivity (PSR sort gate)” value is reported as “high polyreactivity”.
For “QVQLVESGGGLVQAGGSLRLSCAASGRIFRYNAMGWYRQAPGKERELVAAITNGGSTNYADSVKGRFTISRDNAKNTVYLQMNSLKPEDTAVYYCNAQGRRYSQRYYYWGQGTQVTVSS”, the “polyreactivity (PSR sort gate)” value was “high polyreactivity”.
With “QVQLVESGGGLVQAGGSLRLSCAASGTTFYSNAMGWYRQAPGKEREFVAAISYSGGSTYYADSVKGRFTISRDNAKYTVYLQMNSLKPEDTAVYYCNARNWYYDGDYWVQGTQVTVSS” the “polyreactivity (PSR sort gate)” value was “high polyreactivity”.
With “QVQLVESGGGLVQAGGSLRLSCAASGSIFVGYAMGWYRQAPGKVRELVAAISRRGGSTYYADSVKGRFTISRDNAKNTLYLQMNSLKPEDTAVYYCAARQSTSATSGYYSWGQGTQVTVSS” the “polyreactivity (PSR sort gate)” value was “high polyreactivity”.
For “QVQLVESGGGLVQAGGSLRLSCAASGSTFRNNAMGWYRQAHGKERELVAAISRGGGSTYYADSVKGRFTISRDNAKNTVYLQMNSLKPEDTAVYYCARRPTGIYDYWGQGTQVTVSS”, the “polyreactivity (PSR sort gate)” value was “high polyreactivity”.
In the case of “QVQLVESGGGLVQAGGSLRLSCAASGGTFKLYAMGWYRQAPGKERELVAAISRRGGSTYYADSVKGRFTISRDNAKNTVYLQMNSLKPEDTAVYYCAAPGPTQSTQRGGYWGQGTQVTVSS”, the “polyreactivity (PSR sort gate)” value is reported as “high polyreactivity”.
With “QVQLVESGGGLVQAGGSLRLICAASGIIFYVNAMGWYRQAPGKERELVAAITRGGTTYYADSVKGRFTISRDNAKNTVYLQMNSLKPEDTAVYYCAARLRYTTGIYYYWGQGTQVTVSS” the “polyreactivity (PSR sort gate)” value was “high polyreactivity”.
In the case of “QVQLVESGGGLVQAGGSLRLTCAASGRTYRKNAMGWYRQAPGKETELVAAITGSSGTTYYADSVKARFTISRDNAKISVYFQMNSLKPEDTAVYYCATTVCDPGRRYYYWGLGTQVTVSS”, the “polyreactivity (PSR sort gate)” value is reported as “high polyreactivity”.
In the case of “QVQLVESGGGLVQAGGSLRLSCAASGFTFYANAMGWYRQAPGKERELVAAITSSGGSTYYADSVKGRFTISRDNAKNTVYLQMNSLKPEDSAVYYCNSLRLYSIPRLYGYWGQGTQVTVSS”, the “polyreactivity (PSR sort gate)” value is reported as “high polyreactivity”.
For “QVQLVESGGGLVQAGGSLRLSCAASGIIFQFYAMGWYRQAPGKERELVAAISRSGGITHYADSVKGRFTISRDTAQNTVYLQMNSLKPEDTAVYYCAAVRQAYPRLDYWGQGTQVTVSS”, the “polyreactivity (PSR sort gate)” value was “high polyreactivity”.
With “QVQLVESGGGLVQAGGSLRLSCAASGSSFVYNVMGWYRPAPGKERELVAAIRWRGGSTYADSVKGRFTISRDNAKNTVYLQMNSLKPEDTAVYYCAAGIPRYWYAGHYDYWGQGTQVTVSS” the “polyreactivity (PSR sort gate)” value was “low polyreactivity”.
For “QVQLVESGGGLVQAGGSLRLSCAASGSIFPIYAMGRYRQAPGKEMELVAAINRSGGSTYYADSVKGRFTISRDNAKNSVYLQMNSLIPEDTAVYYCNADYGYHNQLFWGYYGWSSDHWGQGTQVTVSS”, the “polyreactivity (PSR sort gate)” value was “low polyreactivity”.
With “QVQLEESGGGLVQAGGSLRLSCAASGLIFGWYAMGWYRQAPGKERELVAAISRRGGSTYYADSVKGRFTISRDNAKNSVFLQMNSLKPEDTAVYYCNADTYGDSYDYWGQGTQVTVSS” the “polyreactivity (PSR sort gate)” value was “high polyreactivity”.
With “QVQLVESGGGLVQAGGSLRLSCAASGRTFRPYDMGWYRQAPGKERELVATITTNGGSTYYADSVKGRFTISRDNAKNTVYLQMNSLKPEDTAVYYCATDNWWQTYHYQGGYYWGQGTQVTVSS” the “polyreactivity (PSR sort gate)” value was “low polyreactivity”.
For “QVQLVESGGGLVQAGGSLRLSCAASGSIFYRYAMGWYRQAPGKERELVAGISWTGGTYYADSVKGRFTISRDNAKNTVYLQMNSLKPEDTAVYYCAATIWIAYRGWYSDYNYWGQGTQVTVSS”, the “polyreactivity (PSR sort gate)” value was “low polyreactivity”.
With “QVQLVESGGGLVQAGGSLRLSCAASGSIFTYNVMGWYRQAPGKERELVASISWSGGRTYYADSVKGRFTISRDNAKNTVYLQMNSLKPEDTAVYYCNKVRPPVYFPNRDYWGQGTQVTVSS” the “polyreactivity (PSR sort gate)” value was “low polyreactivity”.
For “QVQLVETGGGLVQAGGSLRLSCAASGSIFYRYAMGWYRQAPGKEREMVAAIRTRGGTYYADSVKGRFTISRDNAKNTVYLQMNSLKPEDTAVYYWNAVVPGCTAVDYDYWGQGTQVTVSS”, the “polyreactivity (PSR sort gate)” value was “high polyreactivity”.
In the case of “QVQLVESGGGLVQAGGSLRLSCAASGSIIVYNTMGWYRQAPGKERELVAAITVRDDSTYYADSVKGRFTISRDYAKNTVYLQMNSLNPEDTAVYYCNARGYFLIGRDYWGQGTQVTVSS”, the “polyreactivity (PSR sort gate)” value is reported as “low polyreactivity”.
For “QFQLVESCGGLVHAGGSLRLSCAASGSIFFSYAMGWYRQAPGKERELVAAISSGGSTYYADSVKGRFTISRDNAKNTVYLQMNSLKPEDTAVYYCAARGYRLVPVDFYYWGQGTQVTVSS”, the “polyreactivity (PSR sort gate)” value was “low polyreactivity”.
With “QVQLVESWGGLVQAGGSLRLSCAASGSTFGKYAMGWYRQAPGKERELVAAISYRGGRTFYADSVKGRFTISRDNAKNTVYLQMNSLKPEDTAVYYCAAYPGVSRGTGPRRYDYWGQGTQVTVSS” the “polyreactivity (PSR sort gate)” value was “high polyreactivity”.
For “QVQLVESGGGLVQAGGSLRLSCAASGTTFPAYAMGWYRQAPGKERELVAVINLSGSTYYADSVKGRFTISRDNAKNTVYLQMNSLKPEDTAVYYCNARQYDYYRYGYWGQGTQVTVSS”, the “polyreactivity (PSR sort gate)” value was “low polyreactivity”.
In the case of “QVQLVESGGGLVQAGGSLRLSCAASGFTFEEYAMGWYRQAPGKERELVAAIDYTVGSTYYADSVKGRFTISRDNAKNTVYLQMNSLKPEDTAVYYCNVDLSYSFNSAYGYWGQGTQVTVSS”, the “polyreactivity (PSR sort gate)” value is reported as “low polyreactivity”.
